Test results from FireProtDB.
Where “and” joins values, the source holds several entries; their conditions need not be identical. Identical values can stand only once.

B1: Barstar, P11540 (parent)
chain: MKKAVINGEQIRSISDLHQTLKKELALPEYYGENLDALWDCLTGWVEYPLVLEWRQFEQSKQLTENGAESVLQVFREAKAEGCDITIILS
B2: Subtilisin BPN', P00782 (parent)
chain: MRGKKVWISLLFALALIFTMAFGSTSSAQAAGKSNGEKKYIVGFKQTMSTMSAAKKKDVISEKGGKVQKQFKYVDAASATLNEKAVKELKKDPSVAYVEEDHVAHAYAQSVPYGVSQIKAPALHSQGYTGSNVKVAVIDSGIDSSHPDLKVAGGASMVPSETNPFQDNNSHGTHVAGTVAALNNSIGVLGVAPSASLYAVKVLGADGSGQYSWIINGIEWAIANNMDVINMSLGGPSGSAALKAAVDKAVASGVVVVAAAGNEGTSGSSSTVGYPGKYPSVIAVGAVDSSNQRASFSSVGPELDVMAPGVSIQSTLPGNKYGAYNGTSMASPHVAGAAALILSKHPNWTNTQVRSSLENTTTKLGDSFYYGKGLINVQAAAQ
B3: Ornithine carbamoyltransferase subunit I, P04391 (parent)
chain: MSGFYHKHFLKLLDFTPAELNSLLQLAAKLKADKKSGKEEAKLTGKNIALIFEKDSTRTRCSFEVAAYDQGARVTYLGPSGSQIGHKESIKDTARVLGRMYDGIQYRGYGQEIVETLAEYASVPVWNGLTNEFHPTQLLADLLTMQEHLPGKAFNEMTLVYAGDARNNMGNSMLEAAALTGLDLRLVAPQACWPEAALVTECRALAQQNGGNITLTEDVAKGVEGADFIYTDVWVSMGEAKEKWAERIALLREYQVNSKMMQLTGNPEVKFLHCLPAFHDDQTTLGKKMAEEFGLHGGMEVTDEVFESAASIVFDQAENRMHTIKAVMVATLSK
B4: 3-isopropylmalate dehydrogenase, P05645 (parent)
chain: MKKRIALLPGDGIGPEVLESATDVLKSVAERFNHEFEFEYGLIGGAAIDEHHNPLPEETVAACKNADAILLGAVGGPKWDQNPSELRPEKGLLSIRKQLDLFANLRPVKVFESLSDASPLKKEYIDNVDFVIVRELTGGLYFGQPSKRYVNTEGEQEAVDTLFYKRTEIERVIREGFKMAAARKGKVTSVDKANVLESSRLWREVAEDVAQEFPDVKLEHMLVDNAAMQLIYAPNQFDVVVTENMFGDILSDEASMLTGSLGMLPSASLSSSGLHLFEPVHGSAPDIAGKGMANPFAAILSAAMLLRTSFGLEEEAKAVEDAVNKVLASGKRTRDLARSEEFSSTQAITEEVKAAIMSENTISNV
B5: Penicillolysin, P47189 (parent)
chain: MRFTTLSTAFLALAQNVYAFPIESDLSALDVTLSQVSDTRIKAVVKNTGAENVTFVHLNFFRDSAPVKKVSVYRENNEVVFDGIKRRFQLQGLASESLTTLEAGEVLEDEFDIATTTDLSSGGAITLRSNGLVPVVKDGAVTGYLPYSSNDLKLNIDGAKASTVTKALKPLDRRTKETCSNASRKSALEKALSNTVKLANAAATAARSGSASKFSEYFKTTSSSTRSVVAARLEAVAKEAQSASSGSTTYYCSDTLGYCETNVLAYTLPARNIIANCDIYYSYLPALAGTCHQQDQATTTLHEFTHAPGVYSPGTDDLGYGYSAATSLSSSQAVLNADSYALYANAINLGC
B6: Tetracycline repressor protein class D, P0ACT4 (parent)
chain: MARLNRESVIDAALELLNETGIDGLTTRKLAQKLGIEQPTLYWHVKNKRALLDALAVEILARHHDYSLPAAGESWQSFLRNNAMSFRRALLRYRDGAKVHLGTRPDEKQYDTVETQLRFMTENGFSLRDGLYAISAVSHFTLGAVLEQQEHTAALTDRPAAPDENLPPLLREALQIMDSDDGEQAFLHGLESLIRGFEVQLTALLQIVGGDKLIIPFC
B7: Gamma-crystallin S, P22914 (parent)
chain: MSKTGTKITFYEDKNFQGRRYDCDCDCADFHTYLSRCNSIKVEGGTWAVYERPNFAGYMYILPQGEYPEYQRWMGLNDRLSSCRAVHLPSGGQYKIQIFEKGDFSGQMYETTEDCPSIMEQFHMREIHSCKVLEGVWIFYELPNYRGRQYLLDKKEYRKPIDWGAASPAVQSFRRIVE
B8: DNA-binding protein HU 1, P08821 (parent)
chain: MNKTELINAVAEASELSKKDATKAVDSVFDTILDALKNGDKIQLIGFGNFEVRERSARKGRNPQTGEEIEIPASKVPAFKPGKALKDAVAGK
B9: Chaperone Ric-8A, Q5E9J8 (parent)
chain: MEPRAVADALETGEEDVVMEALRAYNRENSQSFTFDDAQQEDRKRLAKLLVSVLEQGLPPSRRVIWLQSIRILSRDRSCLDSFTSRRSLQALACYAGISASQGSVPEPLNMDVVLESLKCLCNLVLSSPVAQALAAEAGLVVRLAERVGLCRQSSFPHDVQFFDLRLLFLLTALRTDVRQQLFQELQGVRLLTRALELTLGMTEGERHPELLPPQETERAMEILKVLFNITFDSIKREVDEEDAALYRHLGTLLRHCVMLAAAGDRTEELHGHAVNLLGNLPVKCLDVLLTLEPHEGSLEFLGVNMDVIRVLLSFMEKRLHQTHRLKESVAPVLSVLTECARMHRPARKFLKAQVLPPLRDVRTRPEVGELLRNKLVRLMTHLDTDVKRVAAEFLFVLCSESVPRFIKYTGYGNAAGLLAARGLMAGGRPEGQYSEDEDTDTDEYKEAKASINPVTGRVEEKPPNPMEGMTEEQKEHEAMKLVNMFDKLSRHRVIQPMGMSPRGQLTSLQDAMCETMEGQLSSDPDSDPD

Variants of: B1
Conditions: Bacillus amyloliquefaciens; pH 7; Thermal; CD; phosphate 20 mM; structure 1A19; whole UniProt chain shown

Variant | Tm
H18Q | 65 °C

Same assay, conditions: Bacillus amyloliquefaciens; pH 8; 10 °C; Urea; CD; Tris Cl 50 mM; KCl 100 mM; structure 1BTA; whole UniProt chain shown

Variant | ddG of mutation (higher = less stable) | unfolding free energy
I6V | 1 kcal/mol | 2 kcal/mol
L17V | 1.1 kcal/mol | 1.9 kcal/mol
L35V | 1.1 kcal/mol | 1.9 kcal/mol
L52V | 0.6 kcal/mol | 2.4 kcal/mol

Variants of: B2
Conditions: Bacillus amyloliquefaciens; pH 5; 20 °C; Thermal; DSC; Sodium acetate 100 mM; reversible: yes; structure 1SUP; whole UniProt chain shown

Variant | ddG of mutation (higher = less stable) | unfolding free energy
E62Q K87E | 1.3 kcal/mol | 0.8 kcal/mol
Q70L | 1.1 kcal/mol | 1 kcal/mol
K87E | 1 kcal/mol | 1.1 kcal/mol

Same assay, conditions: Bacillus amyloliquefaciens; pH 7.5; Thermal; fluorescence; Pipes 10 mM; transition: 2; structure 1AK9; whole UniProt chain shown

Variant | Tm | change of melting temperature, mutant - wild type (higher = more stable) | unfolding enthalpy (calorimetric)
T173M G209D | 56.3 °C | -0.5 °C | 72.8 kcal/mol

Same assay, conditions: Bacillus amyloliquefaciens; pH 8; Thermal; DSC; Tris-HCl 50 mM; CaCl2 10 mM; reversible: no; structure 1SUP; whole UniProt chain shown

Variant | Tm | change of melting temperature, mutant - wild type (higher = more stable)
N325S | 80.7 °C | 2.4 °C

Same assay, conditions: Bacillus amyloliquefaciens; pH 8; Thermal; DSC; Tris-HCl 50 mM; KCl 50 mM; structure 1SUP; whole UniProt chain shown

Variant | Tm | change of melting temperature, mutant - wild type (higher = more stable)
T129C | 56.4 °C | -2.5 °C
T129C S194C | 62 °C | 3.1 °C
S194C | 57.2 °C | -1.7 °C

Same assay, conditions: Bacillus amyloliquefaciens; pH 9.63; Thermal; DSC; glycine 50 mM; reversible: yes; structure 1SUP; whole UniProt chain shown

Variant | Tm | unfolding enthalpy (calorimetric) | unfolding enthalpy (van 't Hoff)
M157F Y324K N325S S328C | 63.5 °C | 140 kcal/mol | 140 kcal/mol

Variants of: B3
Conditions: Escherichia coli (strain K12); pH 8.3; Thermal; DSC; borate 40 mM; structure 1AKM; whole UniProt chain shown

Variant | Tm | unfolding enthalpy (calorimetric)
K87Q | 69.7 °C | 690 kcal/mol
R320A | 69.6 °C | 710 kcal/mol
A326G | 63 °C | 660 kcal/mol

Variants of: B4
Conditions: Bacillus subtilis (strain 168); pH 7.6; Thermal; CD; Potassium phosphate 20 mM; reversible: yes; whole UniProt chain shown

Variant | Tm
I95L M292I T308I | 70 °C
I95L T308I | 66 °C

Same assay, conditions: Bacillus subtilis (strain 168); pH 7.6; Thermal; CD; potassium phosphate 20 mM; reversible: No; whole UniProt chain shown

Variant | change of melting temperature, mutant - wild type (higher = more stable)
M256A | 7 °C
M256F | -12.5 °C
M256I | 0 °C
M256L | 0 °C
M256V | 2.5 °C

Variants of: B5
Conditions: Penicillium citrinum; pH 5; Thermal; CD; sodium acetate 10 mM; reversible: no; whole UniProt chain shown

Variant | Tm | change of melting temperature, mutant - wild type (higher = more stable)
R207E E234R | 70 °C | 2 °C
T255P | 71 °C | 3 °C
A341E | 70 °C | 2 °C

Variants of: B6
Conditions: Escherichia coli; pH 7.5; 22 °C; Urea; CD; Tris-HCl 50 mM; NaCl 150 mM; reversible: yes(92%); structure 2TRT; whole UniProt chain shown

Variant | denaturant midpoint (higher = more stable)
R128E | 4.9 M

Variants of: B7
Conditions: Homo sapiens; pH 7.4; Thermal; Fluorescence; Disodium phosphate; NaCl; structure 6FD8; whole UniProt chain shown

Variant | Tm | change of melting temperature, mutant - wild type (higher = more stable)
S39C | 61.3 °C and 58.8 °C | -6.2 °C and -7 °C

Variants of: B8
Conditions: Bacillus subtilis (strain 168); pH 7.5; 20 °C; Thermal; CD; Tris/HCl 5 mM; reversible: yes; whole UniProt chain shown

Variant | unfolding free energy
F50W | 8.61 kcal/mol
F79W | 9.57 kcal/mol

Variants of: B9
Conditions: Bos taurus; pH 7.5; Thermal; DSF; Tris-HCl; KCl; structure 6N85; whole UniProt chain shown

Variant | Tm | change of melting temperature, mutant - wild type (higher = more stable)
N123E | 46.7 °C | -0.1 °C
F169R | 45.6 °C | -1.2 °C
A173W | 45.6 °C | -1.2 °C
R75M | 45.9 °C | -0.9 °C
